Data on 28 sequences can be found in the domain aggregation screens of Martell et al. (2025).

This series in a line: soluble fraction after stress (log2 fold change); higher = more stays soluble; pooled small domains, quantitative proteomics. Conditions: stress: 50 degC. The method, boiled down:
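The measure of aggregation propensity here is the base-two logarithm of the fold change in the soluble amount of each protein after stress. A higher value means more of that protein stays in solution. Stress was applied at 50°C to pooled libraries of small protein domains, read out by high-throughput quantitative proteomics.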
As to “HMPSLILADEPTGNLDSRNSSEVIALLKNASKRYAQTIIMITHNRSIAQSADRVLQVSDGVLTDMG”, the “soluble fraction (log2)” value was 0.0494.

On to “HMTKTKFLSKDMILSAMSRTKSNRAAARYLSVSFVHYKKYAREYKDETSGVSLWEKHKNQSGTGIPK”, for which the “soluble fraction (log2)” value is -1.92.

Regarding “HMSDAPLLSIRSLAVAFDGTRVVDGVSFDVARGEVVALVGESGSGKTVTGLSLLDLVPPPGRRVGGEV”, the “soluble fraction (log2)” value was 0.0423.

Consider “HMSTMTDAQRHLFANKLSQLPEMGKYSHGTESYQQFAVRIAEMLQTPKKFKELYPYLQKVGFKA”, for which the “soluble fraction (log2)” value was 0.00319.

Regarding “HMQSAKLSYSDFMQKVNAGDVVSVKIQGPKISGVTTGGGKFMTYAPEDPTLVSTLMQKKVEVMAEP”, the “soluble fraction (log2)” value was found to be 0.178.

“HMYMTTADADMWKYVNTGRYNNDIQLMEEYKNRSMDSFEVITPEQQRKYNKAAMNLNSYYAWADPSYKPNP”: the “soluble fraction (log2)” value was -0.257.

For “HMAAVPYQVKITTEDLRIRTGPGTNHDFTGQYTGKGVFTIVEESEGSGAPIWGRLKSGAGWIGIDPSWSVR”, the “soluble fraction (log2)” value was -0.706.

Regarding “HMLVGGPDTPSKVTVSFDLGSRQAVDELTERAGAAGGRIGDIDDYPFMYQRQFDDPDGYHYSPFWMKP”, the “soluble fraction (log2)” value was -0.149.

Regarding “HMSNMWVWSKLSGIQWMDAWEDRFHGNPNTVITRLKTNKTVRVEVYTETEQEALDIKKLFGGSIRKLV”, the “soluble fraction (log2)” value is -2.96.

For the sequence “HMHEHWDGSGFPKHLRGANIPLGARVIAVADTYDSITSSRAYRAGSTHEAAEREMRRVSGTQLDPE”, the “soluble fraction (log2)” value is 0.137.

Turning to “HMFDLATVKRVAEEAGMKFTIHPVELRAAHPNTAVLTLKSKAGRILVLKAASVGGGRIRVTEIDGVPAD”, the “soluble fraction (log2)” value is -0.423.

In the case of “HMDDGLTRLTPRENEVLELMAQGRSNTAIAERLVLSYGAVEKNVSSIFTKLDLPLDAGDHRRVLAVLRRLN”, the “soluble fraction (log2)” value is -0.688.

Turning to “HMSLLLTPREASVWASEYLGKKVTSNNIIYLLNYGKIANHSTDLKENLIDKNELKIYYDSTIKSQKH”, the “soluble fraction (log2)” value was -0.216.

For “HMNIVKGDTTANVRVVQQRLYNLGYYTYKVDGIWGTRTKTAVKKFQKDKGLVADGIVGAKTEKALGITLT”, the “soluble fraction (log2)” value was -1.29.

Turning to “HMNPNEVQIPDLVNKTEEEAEQILKDLKLKLVVKSEEYDENIEKGKIISQDPTYKENYKIKEHSEISVIIS”, the “soluble fraction (log2)” value came out at 0.214.

“HMSEMVIPEDFLAALETNPQAKAFYATLNRQNQYAVYHRLQTAKRPETRAKRIADFVAQLAAGKRF”: the “soluble fraction (log2)” value was -0.355.

Consider “HMIKIDESTLSEDELKIFEILKIEDKNIENIAIESKILPGKLLATLMNMEMKKIVVQYPGKVFGLNRKLK”, for which the “soluble fraction (log2)” value was -0.492.

Consider “HMTGELEVTAAGLSPEKLLNLAAKNHITLSNVKRLSYTQLSFRIGPADYNRLKKLLPEGRYKLNVGSS”, for which the “soluble fraction (log2)” value was -0.289.

As for “HMNQNAMIGAHIRNLRLAKKLTLKQLSDESGLSVGFLSQLERGMSSIAIDTLARLAHILGADLSSFF”, the “soluble fraction (log2)” value is -0.763.

As for “HMTKTFDSPEDADNDVLAKTLFQIFGVQSVYLKENFVTITKSNSVGWHTLMEKTGHTLEEHLKF”, the “soluble fraction (log2)” value was 0.0987.

“HMRSSNEAVSQRRDKILDYISATGRTSTEIVAKEFGVSVMTARRDLLYLMEKRLISKSSSGLFKVDNN”: the “soluble fraction (log2)” value was -2.42.

Take “HMNIQPAMLNAANGGVAWKERGISMSQIMKRNAHTAEGSQKLWDYAFENFFQKNIDAGNIRDDR”: the “soluble fraction (log2)” value came to 0.0644.

Regarding “HMRKMELTEAAEKLIEEPDVVSAYRNMQQIFQQWREIGPVPREQRDEVWSHFKDLMTQVNRRHQAHFEN”, the “soluble fraction (log2)” value was -0.0451.

Take “HMTVKKLTINEDNSGRRIDNYLLSIFNSLPRSKIYNIIRKGEVRVNSSRIKPNYRLEQGDLVRIPPNLEFT”: the “soluble fraction (log2)” value is 0.0953.

For “HMTFPIDINRADTEQLTALPGIGEVLAKRIIAYREENGSFLSTDELKNVEGIGEKRLEAIVDLITIG”, the “soluble fraction (log2)” value amounted to 0.113.

For the sequence “HMQINLSEWVLAAREYAGPEMTQEKLAEHLGRTKANVSAMENGRSKPSFEQMMEIHRVTGYPLPYQ”, the “soluble fraction (log2)” value is -0.218.

For “HMHDLSQQIVRYLIQQGGSSSLTDKSDPQEIYRTFKVSKKKYKQALGNLYKSKTIVITSGKIELVD”, the “soluble fraction (log2)” value was -2.69.

For “HMEIYEEDRTKVVNDLMDQILNRQITMDAAATKFINIRNSLGTTITKEDEQNLEMLRGLIFDKT”, the “soluble fraction (log2)” value was 0.16.
